In patent publication US20220411483A1 (Chugai, published 2022):

T1: FcgRIIaR (human, UniProt P12318 34-217)
T1 construct: extracellular domain; also called FcγRIIa R type; FcγRIIa (R type)
T1 sequence (looked up): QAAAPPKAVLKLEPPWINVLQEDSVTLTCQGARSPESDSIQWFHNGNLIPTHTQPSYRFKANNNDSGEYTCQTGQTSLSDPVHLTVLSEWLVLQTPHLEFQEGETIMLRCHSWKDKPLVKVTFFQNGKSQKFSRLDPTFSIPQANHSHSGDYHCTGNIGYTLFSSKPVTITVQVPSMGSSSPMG

T2: FcgRIIb (human, UniProt P31994 43-217)
T2 construct: extracellular domain; also called FcγRIIb
T2 sequence (looked up): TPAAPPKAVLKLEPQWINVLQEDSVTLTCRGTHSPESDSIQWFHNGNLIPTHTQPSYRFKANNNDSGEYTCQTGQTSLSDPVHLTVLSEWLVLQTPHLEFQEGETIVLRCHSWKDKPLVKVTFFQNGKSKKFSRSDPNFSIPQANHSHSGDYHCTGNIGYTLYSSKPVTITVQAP


What was measured:
FcgRIIaR = target: T1, FcgRIIaR; experiment: SPR, amount bound per captured antibody
FcgRIIb = target: T2, FcgRIIb; experiment: SPR, amount bound per captured antibody

Binder | Relative FcgRIIaR-binding Activity (FcgRIIaR) [IL6R-G1d/IL6R-L=100] | Relative FcgRIIb-binding Activity (FcgRIIb) [IL6R-G1d/IL6R-L=100]
IL6R-P628/IL6R-L (antibody, human IgG1, kappa) heavy: QVQLQESGPGLVKPSETLSLTCAVSGHSISHDHAWSWVRQPPGEGLEWIGFISYSGITNYNPSLQGRVTISRDNSKNTLYLQMNSLRAEDTAVYYCARSLARTTAMDYWGEGTLVTVSSASTKGPSVFPLAPSSKSTSGGTAALGCLVKDYFPEPVTVSWNSGALTSGVHTFPAVLQSSGLYSLSSVVTVPSSSLGTQTYICNVNHKPSNTKVDKKVEPKSCDKTHTCPPCPAPDLLGRDSVFLFPPKPKDTLMISRTPEVTCVVIDVAEEDGEVKFNWYVDGVEVHNAKTKPREEQYNSTYRVVSVLTVLHQDWLNGKEYKCKVSNKALPAPIEKTISKAKGQPREPQVYTLPPSRDELTKNQVSLTCLVKGFYPSDIAVEWESNGQPENNYKTTPPVLDSDGSFFLYSKLTVDKSRWQQGNVFSCSVMHEALHNHYTQKSLSLSP light: not shown | 48.1 | 176
IL6R-P634/IL6R-L (antibody, human IgG1, kappa) heavy: QVQLQESGPGLVKPSETLSLTCAVSGHSISHDHAWSWVRQPPGEGLEWIGFISYSGITNYNPSLQGRVTISRDNSKNTLYLQMNSLRAEDTAVYYCARSLARTTAMDYWGEGTLVTVSSASTKGPSVFPLAPSSKSTSGGTAALGCLVKDYFPEPVTVSWNSGALTSGVHTFPAVLQSSGLYSLSSVVTVPSSSLGTQTYICNVNHKPSNTKVDKKVEPKSCDKTHTCPPCPAPDLLGGDSVFLFPPKPKDTLMISRTPEVTCVVIVVAEEDGEVKFNWYVDGVEVHNAKTKPREEQYNSTYRVVSVLTVLHQDWLNGKEYKCKVSNKALPAPIEKTISKAKGQPREPQVYTLPPSRDELTKNQVSLTCLVKGFYPSDIAVEWESNGQPENNYKTTPPVLDSDGSFFLYSKLTVDKSRWQQGNVFSCSVMHEALHNHYTQKSLSLSP light: not shown | 2.8 | 6.5
IL6R-P633/IL6R-L (antibody, human IgG1, kappa) heavy: QVQLQESGPGLVKPSETLSLTCAVSGHSISHDHAWSWVRQPPGEGLEWIGFISYSGITNYNPSLQGRVTISRDNSKNTLYLQMNSLRAEDTAVYYCARSLARTTAMDYWGEGTLVTVSSASTKGPSVFPLAPSSKSTSGGTAALGCLVKDYFPEPVTVSWNSGALTSGVHTFPAVLQSSGLYSLSSVVTVPSSSLGTQTYICNVNHKPSNTKVDKKVEPKSCDKTHTCPPCPAPDLLGGDSVFLFPPKPKDTLMISRTPEVTCVVISVAEEDGEVKFNWYVDGVEVHNAKTKPREEQYNSTYRVVSVLTVLHQDWLNGKEYKCKVSNKALPAPIEKTISKAKGQPREPQVYTLPPSRDELTKNQVSLTCLVKGFYPSDIAVEWESNGQPENNYKTTPPVLDSDGSFFLYSKLTVDKSRWQQGNVFSCSVMHEALHNHYTQKSLSLSP light: not shown | 15.3 | 56.4
IL6R-P632/IL6R-L (antibody, human IgG1, kappa) heavy: QVQLQESGPGLVKPSETLSLTCAVSGHSISHDHAWSWVRQPPGEGLEWIGFISYSGITNYNPSLQGRVTISRDNSKNTLYLQMNSLRAEDTAVYYCARSLARTTAMDYWGEGTLVTVSSASTKGPSVFPLAPSSKSTSGGTAALGCLVKDYFPEPVTVSWNSGALTSGVHTFPAVLQSSGLYSLSSVVTVPSSSLGTQTYICNVNHKPSNTKVDKKVEPKSCDKTHTCPPCPAPDLLGGDSVFLFPPKPKDTLMISRTPEVTCVVIRVAEEDGEVKFNWYVDGVEVHNAKTKPREEQYNSTYRVVSVLTVLHQDWLNGKEYKCKVSNKALPAPIEKTISKAKGQPREPQVYTLPPSRDELTKNQVSLTCLVKGFYPSDIAVEWESNGQPENNYKTTPPVLDSDGSFFLYSKLTVDKSRWQQGNVFSCSVMHEALHNHYTQKSLSLSP light: not shown | 4.1 | 8
IL6R-P630/IL6R-L (antibody, human IgG1, kappa) heavy: QVQLQESGPGLVKPSETLSLTCAVSGHSISHDHAWSWVRQPPGEGLEWIGFISYSGITNYNPSLQGRVTISRDNSKNTLYLQMNSLRAEDTAVYYCARSLARTTAMDYWGEGTLVTVSSASTKGPSVFPLAPSSKSTSGGTAALGCLVKDYFPEPVTVSWNSGALTSGVHTFPAVLQSSGLYSLSSVVTVPSSSLGTQTYICNVNHKPSNTKVDKKVEPKSCDKTHTCPPCPAPDLLGGDSVFLFPPKPKDTLMISRTPEVTCVVIKVAEEDGEVKFNWYVDGVEVHNAKTKPREEQYNSTYRVVSVLTVLHQDWLNGKEYKCKVSNKALPAPIEKTISKAKGQPREPQVYTLPPSRDELTKNQVSLTCLVKGFYPSDIAVEWESNGQPENNYKTTPPVLDSDGSFFLYSKLTVDKSRWQQGNVFSCSVMHEALHNHYTQKSLSLSP light: not shown | 4.1 | 7.1

Continued, values first:

Relative FcgRIIaR-binding Activity (FcgRIIaR) [IL6R-G1d/IL6R-L=100] | Relative FcgRIIb-binding Activity (FcgRIIb) [IL6R-G1d/IL6R-L=100] | Binder
78.3 | 176 | IL6R-P638/IL6R-L (antibody, human IgG1, kappa) heavy: QVQLQESGPGLVKPSETLSLTCAVSGHSISHDHAWSWVRQPPGEGLEWIGFISYSGITNYNPSLQGRVTISRDNSKNTLYLQMNSLRAEDTAVYYCARSLARTTAMDYWGEGTLVTVSSASTKGPSVFPLAPSSKSTSGGTAALGCLVKDYFPEPVTVSWNSGALTSGVHTFPAVLQSSGLYSLSSVVTVPSSSLGTQTYICNVNHKPSNTKVDKKVEPKSCDKTHTCPPCPAPDHLGDDSVFLFPPKPKDTLMISRTPEVTCVVIDVAEEDGEVKFNWYVDGVEVHNAKTKPREEQDNSTYRVVSVLTVLHQDWLNGKEYKCKVSNKALPRPIEKTISKAKGQPREPQVYTLPPSRDELTKNQVSLTCLVKGFYPSDIAVEWESNGQPENNYKTTPMVLDSDGSFFLYSKLTVDKSRWQQGNVFSCSVMHEALHNHYTQKSLSLSP light: not shown
75.1 | 178 | IL6R-P640/IL6R-L (antibody, human IgG1, kappa) heavy: QVQLQESGPGLVKPSETLSLTCAVSGHSISHDHAWSWVRQPPGEGLEWIGFISYSGITNYNPSLQGRVTISRDNSKNTLYLQMNSLRAEDTAVYYCARSLARTTAMDYWGEGTLVTVSSASTKGPSVFPLAPSSKSTSGGTAALGCLVKDYFPEPVTVSWNSGALTSGVHTFPAVLQSSGLYSLSSVVTVPSSSLGTQTYICNVNHKPSNTKVDKKVEPKSCDKTHTCPPCPAPDKLGDDSVFLFPPKPKDTLMISRTPEVTCVVIDVAEEDGEVKFNWYVDGVEVHNAKTKPREEQDNSTYRVVSVLTVLHQDWLNGKEYKCKVSNKALPRPIEKTISKAKGQPREPQVYTLPPSRDELTKNQVSLTCLVKGFYPSDIAVEWESNGQPENNYKTTPMVLDSDGSFFLYSKLTVDKSRWQQGNVFSCSVMHEALHNHYTQKSLSLSP light: not shown
6.4 | 71.9 | IL6R-P635/IL6R-L (antibody, human IgG1, kappa) heavy: QVQLQESGPGLVKPSETLSLTCAVSGHSISHDHAWSWVRQPPGEGLEWIGFISYSGITNYNPSLQGRVTISRDNSKNTLYLQMNSLRAEDTAVYYCARSLARTTAMDYWGEGTLVTVSSASTKGPSVFPLAPSSKSTSGGTAALGCLVKDYFPEPVTVSWNSGALTSGVHTFPAVLQSSGLYSLSSVVTVPSSSLGTQTYICNVNHKPSNTKVDKKVEPKSCDKTHTCPPCPAPDLLGGDSVFLFPPKPKDTLMISRTPEVTCVVIDVKEEDGEVKFNWYVDGVEVHNAKTKPREEQYNSTYRVVSVLTVLHQDWLNGKEYKCKVSNKALPAPIEKTISKAKGQPREPQVYTLPPSRDELTKNQVSLTCLVKGFYPSDIAVEWESNGQPENNYKTTPPVLDSDGSFFLYSKLTVDKSRWQQGNVFSCSVMHEALHNHYTQKSLSLSP light: not shown
61.5 | 170 | IL6R-P641/IL6R-L (antibody, human IgG1, kappa) heavy: QVQLQESGPGLVKPSETLSLTCAVSGHSISHDHAWSWVRQPPGEGLEWIGFISYSGITNYNPSLQGRVTISRDNSKNTLYLQMNSLRAEDTAVYYCARSLARTTAMDYWGEGTLVTVSSASTKGPSVFPLAPSSKSTSGGTAALGCLVKDYFPEPVTVSWNSGALTSGVHTFPAVLQSSGLYSLSSVVTVPSSSLGTQTYICNVNHKPSNTKVDKKVEPKSCDKTHTCPPCPAPDRLGDDSVFLFPPKPKDTLMISRTPEVTCVVIDVAEEDGEVKFNWYVDGVEVHNAKTKPREEQDNSTYRVVSVLTVLHQDWLNGKEYKCKVSNKALPRPIEKTISKAKGQPREPQVYTLPPSRDELTKNQVSLTCLVKGFYPSDIAVEWESNGQPENNYKTTPMVLDSDGSFFLYSKLTVDKSRWQQGNVFSCSVMHEALHNHYTQKSLSLSP light: not shown
103 | 175 | IL6R-P642/IL6R-L (antibody, human IgG1, kappa) heavy: QVQLQESGPGLVKPSETLSLTCAVSGHSISHDHAWSWVRQPPGEGLEWIGFISYSGITNYNPSLQGRVTISRDNSKNTLYLQMNSLRAEDTAVYYCARSLARTTAMDYWGEGTLVTVSSASTKGPSVFPLAPSSKSTSGGTAALGCLVKDYFPEPVTVSWNSGALTSGVHTFPAVLQSSGLYSLSSVVTVPSSSLGTQTYICNVNHKPSNTKVDKKVEPKSCDKTHTCPPCPAPDLLQDDSVFLFPPKPKDTLMISRTPEVTCVVIDVAEEDGEVKFNWYVDGVEVHNAKTKPREEQDNSTYRVVSVLTVLHQDWLNGKEYKCKVSNKALPRPIEKTISKAKGQPREPQVYTLPPSRDELTKNQVSLTCLVKGFYPSDIAVEWESNGQPENNYKTTPMVLDSDGSFFLYSKLTVDKSRWQQGNVFSCSVMHEALHNHYTQKSLSLSP light: not shown
109 | 184 | IL6R-P639/IL6R-L (antibody, human IgG1, kappa) heavy: QVQLQESGPGLVKPSETLSLTCAVSGHSISHDHAWSWVRQPPGEGLEWIGFISYSGITNYNPSLQGRVTISRDNSKNTLYLQMNSLRAEDTAVYYCARSLARTTAMDYWGEGTLVTVSSASTKGPSVFPLAPSSKSTSGGTAALGCLVKDYFPEPVTVSWNSGALTSGVHTFPAVLQSSGLYSLSSVVTVPSSSLGTQTYICNVNHKPSNTKVDKKVEPKSCDKTHTCPPCPAPDNLGDDSVFLFPPKPKDTLMISRTPEVTCVVIDVAEEDGEVKFNWYVDGVEVHNAKTKPREEQDNSTYRVVSVLTVLHQDWLNGKEYKCKVSNKALPRPIEKTISKAKGQPREPQVYTLPPSRDELTKNQVSLTCLVKGFYPSDIAVEWESNGQPENNYKTTPMVLDSDGSFFLYSKLTVDKSRWQQGNVFSCSVMHEALHNHYTQKSLSLSP light: not shown
